Earlier results in publication PMC2853873.
Like-named read-outs stand apart in the source and are kept apart here.

Tests used:
ADAMTS-2 (Homo sapiens) [1] = target: ADAMTS-2 (Homo sapiens) (UniProt O95450)
ADAMTS-2 (Homo sapiens) [2] = target: ADAMTS-2 (Homo sapiens) (UniProt O95450); remark: listed apart in the source

UniProt O95450, sequence (O95450 254-1211): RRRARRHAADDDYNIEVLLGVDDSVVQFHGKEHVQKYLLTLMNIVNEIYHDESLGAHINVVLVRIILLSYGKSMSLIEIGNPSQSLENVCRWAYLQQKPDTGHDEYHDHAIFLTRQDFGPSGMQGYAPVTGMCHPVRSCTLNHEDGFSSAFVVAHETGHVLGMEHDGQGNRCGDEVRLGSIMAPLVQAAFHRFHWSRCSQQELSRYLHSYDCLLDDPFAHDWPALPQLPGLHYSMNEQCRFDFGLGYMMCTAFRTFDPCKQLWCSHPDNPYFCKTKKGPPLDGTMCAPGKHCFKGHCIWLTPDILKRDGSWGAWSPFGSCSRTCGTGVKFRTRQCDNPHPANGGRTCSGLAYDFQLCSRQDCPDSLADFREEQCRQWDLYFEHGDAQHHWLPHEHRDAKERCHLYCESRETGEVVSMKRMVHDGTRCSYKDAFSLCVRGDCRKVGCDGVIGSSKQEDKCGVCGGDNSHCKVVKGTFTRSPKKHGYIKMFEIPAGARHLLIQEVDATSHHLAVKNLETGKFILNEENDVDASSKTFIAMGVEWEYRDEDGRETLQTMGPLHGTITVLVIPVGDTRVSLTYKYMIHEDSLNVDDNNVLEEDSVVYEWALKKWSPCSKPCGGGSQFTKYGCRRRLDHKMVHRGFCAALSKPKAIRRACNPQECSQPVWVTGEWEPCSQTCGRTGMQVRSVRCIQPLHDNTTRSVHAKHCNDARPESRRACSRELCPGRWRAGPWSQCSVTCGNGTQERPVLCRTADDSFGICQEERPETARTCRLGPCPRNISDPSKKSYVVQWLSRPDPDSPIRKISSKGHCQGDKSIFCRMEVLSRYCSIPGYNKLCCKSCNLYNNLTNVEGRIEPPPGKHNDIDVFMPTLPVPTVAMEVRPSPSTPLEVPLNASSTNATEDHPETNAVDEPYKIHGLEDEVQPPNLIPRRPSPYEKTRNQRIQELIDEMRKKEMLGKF

- Ki (ADAMTS-2 (Homo sapiens) [1]): 0.16 µM
- Ki (ADAMTS-2 (Homo sapiens) [2]): 0.6 µM
Substance: N-TIMP-3 N-terminal domain (from UniProt P35625)
